The values below come from publication PMC13043311, “2′-O-Methyl-guanosine RNA fragments antagonize TLR7 and TLR8 to limit autoimmunity”.

Positions count from the first letter of the chain named.

The target of one data set is T1, TLR7 S530A (Macaca mulatta, UniProt B3Y653 27-839, S530A).
T1 sequence: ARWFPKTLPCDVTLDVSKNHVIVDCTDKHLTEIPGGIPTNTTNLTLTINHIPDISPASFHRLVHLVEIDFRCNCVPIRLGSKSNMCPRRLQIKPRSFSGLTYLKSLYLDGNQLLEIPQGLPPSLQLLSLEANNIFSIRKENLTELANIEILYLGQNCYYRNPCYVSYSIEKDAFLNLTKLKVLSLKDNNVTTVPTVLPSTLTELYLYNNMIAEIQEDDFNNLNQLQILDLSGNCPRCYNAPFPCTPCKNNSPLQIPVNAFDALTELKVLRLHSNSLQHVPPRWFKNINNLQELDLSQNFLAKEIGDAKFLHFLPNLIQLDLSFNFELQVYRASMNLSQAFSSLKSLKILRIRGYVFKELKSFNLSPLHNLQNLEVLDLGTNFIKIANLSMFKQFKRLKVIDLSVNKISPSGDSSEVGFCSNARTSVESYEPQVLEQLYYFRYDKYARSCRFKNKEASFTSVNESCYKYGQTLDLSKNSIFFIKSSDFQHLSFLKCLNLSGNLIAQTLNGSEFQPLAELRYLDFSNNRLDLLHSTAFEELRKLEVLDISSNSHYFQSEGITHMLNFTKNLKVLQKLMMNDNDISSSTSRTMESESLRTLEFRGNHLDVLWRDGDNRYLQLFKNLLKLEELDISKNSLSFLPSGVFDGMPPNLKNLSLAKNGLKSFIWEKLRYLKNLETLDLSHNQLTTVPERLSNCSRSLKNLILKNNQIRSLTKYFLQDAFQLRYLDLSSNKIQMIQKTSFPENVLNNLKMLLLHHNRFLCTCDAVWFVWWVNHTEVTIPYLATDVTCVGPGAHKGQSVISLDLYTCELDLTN
The data set can be described thus: SPR; mean computed from runs 0.1±0.02, 0.2±0.04, 0.2±0.06; SPR with recombinant TLR7/TLR8; buffer, pH and temperature not in the material. To be noted: protein: recombinant; chain copies: 2; single-stranded.

The target in a further data set is T2, TLR7 F506L (Macaca mulatta, UniProt B3Y653 27-839, F506L).
T2 sequence: T1 sequence with F480L, A504S
The data set can be described thus: SPR; mean computed from runs 4±0.5, 5±0.6, 5±2; SPR with recombinant TLR7/TLR8; buffer, pH and temperature not in the material. To be noted: protein: recombinant; chain copies: 2; single-stranded. (Surface plasmon resonance follows binding to a sensor surface in real time, without labels.)

Regarding GUC (XNA, 2'-OMe G1, RNA U2 C3; phosphorothioate linkages) [mGrUrC PS], the Kd (as a rule, the constant that tells how readily two partners part at equilibrium) in the data set with TLR7 S530A was 170 nM; with TLR7 F506L it was 4670 nM.
